Target: T1, human IL-8 (human, UniProt P10145 28-99, limits assumed)
T1 construct: also called hIL-8; hIL8
Assay: TRFIA, chemokine coated on plate, biotinylated anti-mouse IgG and streptavidin-europium detection
Procedure: Briefly, each antigen (human IL-8, Gro-alpha, Gro-beta, Gro-gamma, GCP-2, and ENA-78, and hIL-18 when used as negative control) is individually coated onto a 96-well immunofluorescent plate. The plates are then washed and blocked with a commercially available blocking solution. Blocking solution is emptied and samples containing the mAb are added into each well and incubated for 40 to 60 minutes (this allows the mAb to bind to the target chemokines). The plates are then washed again and a detection Ab is added to each well. […] The detection antibody is conjugated to either europium or biotin. Following another round of washing, to remove unbound detection Ab, a solution of streptavidin-europium was added to biotin detected assays. Streptavidin-europium binds to the biotin allowing for detection. After a final wash to remove unbound streptavidin-europium, or in the case of the humanized MAb assay after the europium conjugate secondary is washed, each well is filled with a chelating detergent solution to activate the europium producing fluorescence. The greater the fluorescence recorded is directly proportionate to the amount of detection Ab present in the well which is directly linked and proportionate to the amount of the chemokine binding mAb.

EC50 (read off the curve): ~0.04 µg/mL
B1: mouse monoclonal antibody 656.35 (antibody, IgG2a, V domains shown)
VH: QVQLQQSGAELVRPGTSVTISCKASGYTFTNYWIVWVKQRPGHGLEWIGDLYSGGGYTFYSENFKGKATLTADTSSSTAYMHLISLTSEDSAVYFCARSGYDRTWFAHWGQGSLVTVSA
VL: DIKMTQSPSSMSASLGERVTITCQASQDIESYLSWYQQKPWKSPKTLIYYATRLADGVPSRFSGSGSGQDYSLTISSLESDDTATYYCLQHGESPPTFGAGTKLELKR
notes: Murine hybridoma antibody; also called 2x656.35
